Data as given in patent publication US6635751B1, “Isolated nucleic acids encoding activated and suppressive forms of ATF6” (HSP Research Institute, Inc., priority 1998, dated 2003).

B1: CREB-RP(151-389): CREB-RP deletion mutant lacking transcription-activating domain (protein, UniProt Q99941 151-389, looked up, fragment)
chain: VIPTSDDSSDVQTKIEPVSPCSSVNSEASLLSADSSSQAFIGEEVLEVKTESLSPSGCLLWDVPAPSLGAVQISMGPSLDGSSGKALPTRKPPLQPKPVVLTTVPMPSRAVPPSTTVLLQSLVQPPPVSPVVLIQGAIRVQPEGPAPSLPRPERKSIVPAPMPGNSCPPEVDAKLLKRQQRMIKNRESACQSRRKKKEYLQGLEARLQAVLADNQQLRRENAALRRRLEALLAENSELK
B2: CREB-RP(1-389): CREB-RP amino acids 1st to 389th, corresponding to p60CREB-RP, activated form (protein)
chain: AELMLLSEIADPTRFFTDNLLSPEDWDSTLYSGLDEVAEEQTQLFRCPEQDVPFDGSSLDVGMDVSPSEPPWELLPIFPDLQVKSEPSSPCSSSSLSSESSRLSTEPSSEALGVGEVLHVKTESLAPPLCLLGDDPTSSFETVQINVIPTSDDSSDVQTKIEPVSPCSSVNSEASLLSADSSSQAFIGEEVLEVKTESLSPSGCLLWDVPAPSLGAVQISMGPSLDGSSGKALPTRKPPLQPKPVVLTTVPMPSRAVPPSTTVLLQSLVQPPPVSPVVLIQGAIRVQPEGPAPSLPRPERKSIVPAPMPGNSCPPEVDAKLLKRQQRMIKNRESACQSRRKKKEYLQGLEARLQAVLADNQQLRRENAALRRRLEALLAENSELKLGSGNRKVVCIMVFLLFIAFNFGPVSISEPPSAPISPRMNKGEPQPRRHLLGFSEQEPVQGVEPLQGSSQGPKEPQPSPTDQPSFSNLTAFPGGAKELLLRDLDQLFLSSDCRHFNRTESLRLADELSGWVQRHQRGRRKIPQRAQERQKSQPRKKSPPVKAVPIQPPGPPERDSVGQLQLYRHPDRSQPAFLDAIDRREDTFYVVSFRRGHLLLPAISHNKTSRPKMSLVMPAMAPNETLSGRGAPGDYEEMMQIECEVMDTRVIHIKTSTVPPSLRKQPSPTPGNATGGPLPVSAASQAHQASHQPLYLNHP
B3: CREB-RP(81-389): CREB-RP deletion mutant lacking transcription-activating domain (protein, UniProt Q99941 81-389, looked up, fragment)
chain: IFPDLQVKSEPSSPCSSSSLSSESSRLSTEPSSEALGVGEVLHVKTESLAPPLCLLGDDPTSSFETVQINVIPTSDDSSDVQTKIEPVSPCSSVNSEASLLSADSSSQAFIGEEVLEVKTESLSPSGCLLWDVPAPSLGAVQISMGPSLDGSSGKALPTRKPPLQPKPVVLTTVPMPSRAVPPSTTVLLQSLVQPPPVSPVVLIQGAIRVQPEGPAPSLPRPERKSIVPAPMPGNSCPPEVDAKLLKRQQRMIKNRESACQSRRKKKEYLQGLEARLQAVLADNQQLRRENAALRRRLEALLAENSELK

Tests used:
HeLa cells = assay: Immunoblotting time course of p50ATF6 and GRP78 in treated HeLa cells; assay type: cell-based, human; conditions: 7 μM A23187 or 300 μM thapsigargin
Description: HeLa cells were treated with 2 μg/ml TM, 7 μM A23187 or 300 μM thapsigargin (in the figure, simply referred to as “Tg”) for the indicated period. Alternatively, HeLa cells which were treated separately from the above treated cells were heat-shocked at 43° C. for 1 hour and then recovered at 37° C. for the indicated period. Whole cell extracts were prepared and analyzed by immunoblotting using an anti-B03N antiserum or an antiserum specific to either GRP78 or HSP70.
HeLa cells cultured in a 60-mm dish so as to have 60% confluency were incubated in the presence of 2 μg/ml tunicamycin (TM) for the indicated period. Cells were washed with PBS, scraped with a rubber policeman, and suspended in 100 μl Laemmli's SDS sample buffer. After boiling the suspension for 5 minutes, aliquots corresponding to 1×10^5 cells were subjected to SDS-PAGE (10% gel) and analyzed by immunoblotting using an anti-ATF6 antibody, or an anti-KDEL antibody recognizing GRP78. The positions of p90ATF6 and p50ATF6 are indicated by open and closed arrows, respectively. The asterisks denote non-specific bands in which a sugar chain is not added to p90ATF6. The positions of molecular weight markers (manufactured by Bio-Rad, prestained SDS-PAGE preparations) are also shown.
By lysing 1×10^6 HeLa cells in 60 μl of 1×sample buffer (62.5 mM Tris-HCl (pH 6.8), 2% SDS, 350 mM dithiothreitol and 0.01% bromophenol blue), a whole cell extract was prepared. […] Using an ECL Western blotting detection kit (manufactured by Amersham Pharmacia Biotech), each antigen was detected.
In order to determine whether or not the appearance of p50ATF6 is associated with the intracellular UPR activity, stress-induced p50ATF6 appearance and GRP78 expression were monitored with the passage of time by immunoblotting.
In order to determine whether or not p90ATF6 is directly converted to p50ATF6 by endoplasmic reticulum stress, quantitative changes in p90ATF6, p50ATF6 and the target protein GRP78 in TM-treated HeLa cells were evaluated with the passage of time by immunoblotting using the purified ATF6 antibody.

human GRP78 promoter = assay: Overexpression of CREB-RP mutants with GRP78 promoter luciferase reporter in HeLa cells, ERSE-mediated transcription; assay type: cell-based; conditions: for ERSE-dependent transcriptional induction by the TM treatment: 2 μg/ml tunicamycin for 16 hours
Description: (§1) In a 96-well plate, the HeLa cells were transiently transformed with a reporter plasmid pGL-G78(−132) for expressing firefly luciferase gene under the control of a human GRP78 promoter together with pcDNA3.1 vector which has no inserts or with ATF6(1-373) expression plasmid or with CREB-RP(1-389) expression plasmid. Relative activity is indicated by the mean±standard deviation (bars), based on four independent experiments (each triplicate determinations).
as §1, with “transformed using” for “transformed with”, “with CREB-RP(308-386)” for “with ATF6(1-373) expression plasmid or with CREB-RP(1-389)”, “plasmid. Transfected cells were treated with (closed bars) or without 2 μg/ml tunicamycin (open bars) for 16 hours before luciferase activities were determined.” for “plasmid.”
In the figure, closed bars and open bars indicate the same as those in FIG. 31.
The CREB-RP(1-389) expression plasmid and a reporter plasmid resulting from ligation of the luciferase gene to downstream of the GRP78 promoter or mutant GRP78 promoter were introduced into the HeLa cells to evaluate the effect of CREB-RP(1-389) overexpression on ERSE-mediated transcriptional activation.
In the same manner as in Example 16, the effect of CREB-RP(308-386) overexpression on ERSE-mediated transcriptional activation was evaluated.
In addition, in the same manner as in Example 16, the effect of overexpression of CREB-RP(81-389) or CREB-RP(151-389) on ERSE-mediated transcriptional activation was evaluated. Here, each of CREB-RP(81-389) and CREB-RP(151-389) lacks transcription-activating domain.

| Molecule | appearance of p50ATF6 relative to GRP78 induction (HeLa cells) | ERSE-dependent transcriptional induction by the TM treatment (human GRP78 promoter) | further results |
| --- | --- | --- | --- |
| CNc1ccc2oc(C[C@H]3O[C@@]4(CC[C@H]3C)O[C@H]([C@H](C)C(=O)c3ccc[nH]3)[C@H](C)C[C@H]4C)nc2c1C(=O)O [A23187] | p50ATF6 appeared in advance of GRP78 induction | – | – |
| C/C=C(/C)C(=O)O[C@H]1C(C)=C2[C@H]([C@@H]1OC(=O)CCCCCCC)[C@@](C)(OC(C)=O)C[C@H](OC(=O)CCC)[C@@]1(O)[C@H]2OC(=O)[C@@]1(C)O [thapsigargin] | p50ATF6 appeared in advance of GRP78 induction | – | – |
| CREB-RP(308-386): CREB-RP amino acids 308th to 386th with N-terminal Met; only basic region and leucine zipper | – | strongly suppressed | – |
| B1 | – | strongly suppressed | – |
| B2 | – | – | ERSE-mediated transcription from GRP78 promoter on overexpression (human GRP78 promoter; without ER stress, not observed with mutant ERSE): constitutively activated the transcription |
| B3 | – | strongly suppressed | – |
